From patent US6936457 come the findings set out here.

The IC50 is the point on the concentration scale where inhibition reaches its midpoint. Low values mean greater potency, high ones weaker potency.

This assay addresses human neuronal nicotinic acetylcholine receptor α7 subunit (human), P36544.

human neuronal nicotinic acetylcholine receptor α7 subunit (human), P36544, sequence (P36544 23-502 limits assumed): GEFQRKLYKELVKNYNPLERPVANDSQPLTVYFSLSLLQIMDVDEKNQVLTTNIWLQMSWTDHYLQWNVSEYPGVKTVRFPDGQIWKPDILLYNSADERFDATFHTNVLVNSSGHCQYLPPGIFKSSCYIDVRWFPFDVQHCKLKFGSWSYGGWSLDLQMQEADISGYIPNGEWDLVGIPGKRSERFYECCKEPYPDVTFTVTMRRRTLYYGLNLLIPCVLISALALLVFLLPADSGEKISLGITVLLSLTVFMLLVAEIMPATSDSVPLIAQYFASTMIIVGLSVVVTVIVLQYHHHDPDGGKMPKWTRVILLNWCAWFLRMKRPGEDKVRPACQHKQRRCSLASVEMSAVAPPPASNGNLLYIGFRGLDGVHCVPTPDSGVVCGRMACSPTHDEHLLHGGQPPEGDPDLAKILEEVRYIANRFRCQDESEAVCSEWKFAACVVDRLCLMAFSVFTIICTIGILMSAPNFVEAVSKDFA

B1: α-bungarotoxin, P60615 22-95 (peptide)
chain: IVCHTTATSPISAVTCPPGENLCYRKMWCDAFCSSRGKVVELGCAATCPSKKPYEEVTCCSTDKCNPHPKQRPG
modifications: not checked
Take B1: the IC50 came out at 3 nM and the percent of [3H]-MLA binding displaced stood at 65%.
